Literature values, collected in patent US20210265014A1, “METHOD AND ELECTRONIC SYSTEM FOR PREDICTING AT LEAST ONE FITNESS VALUE OF A PROTEIN VIA AN EXTENDED NUMERICAL SEQUENCE, RELATED COMPUTER PROGRAM PRODUCT” (PEACCEL, priority 2018, published 2021).

T1: Glucagon like peptide-2 (GLP-2) receptor (Rattus norvegicus, UniProt Q9Z0W0)
T1 sequence (Q9Z0W0 1-550): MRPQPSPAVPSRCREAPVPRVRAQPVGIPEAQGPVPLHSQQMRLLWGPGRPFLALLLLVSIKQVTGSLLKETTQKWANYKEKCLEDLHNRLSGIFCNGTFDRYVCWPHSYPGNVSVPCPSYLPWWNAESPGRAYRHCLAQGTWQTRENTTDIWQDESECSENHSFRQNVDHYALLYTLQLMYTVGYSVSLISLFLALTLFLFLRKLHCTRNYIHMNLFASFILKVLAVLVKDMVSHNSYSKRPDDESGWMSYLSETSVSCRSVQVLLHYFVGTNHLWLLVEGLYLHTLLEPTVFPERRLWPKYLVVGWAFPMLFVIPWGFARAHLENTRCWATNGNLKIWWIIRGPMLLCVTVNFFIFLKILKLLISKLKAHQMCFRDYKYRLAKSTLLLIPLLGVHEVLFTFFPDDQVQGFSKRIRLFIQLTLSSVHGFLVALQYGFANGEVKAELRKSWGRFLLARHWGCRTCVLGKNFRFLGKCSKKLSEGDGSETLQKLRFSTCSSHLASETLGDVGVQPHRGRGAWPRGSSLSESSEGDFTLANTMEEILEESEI


Assays:
[1] = molecular target: T1, Glucagon like peptide-2 (GLP-2) receptor; settings: receptor activation, fold increase over basal cAMP production
[2] = Aspergillus niger epoxide hydrolase; for ΔΔG values: enantioselectivity as ΔΔG‡=−RT ln(E); for E-value: enantioselectivity, glycidyl phenyl ether

Row | Molecule | fold-increase in cAMP [1] [fold] | ΔΔG values [2] [kcal/mol] | E-value [2]
1 | L26A: alanine variant of Glucagon like peptide-2 (GLP-2) (HADGSFSDEMNTILDNLAARDFINWAIQTKITD; Glucagon-like peptide 2; UniProt P01275 146-178, looked up, variant L26A) [Chimera L26A] | 2.33 | – | –
2 | I31A: alanine variant of Glucagon like peptide-2 (GLP-2) (HADGSFSDEMNTILDNLAARDFINWLIQTKATD; Glucagon-like peptide 2; UniProt P01275 146-178, looked up, variant I31A) [Chimera I31A] | 4.42 | – | –
3 | L215 F_A217N_R219S_L249Y_T317W_T318V_C350V: epoxide hydrolase mutant from Aspergillus niger (protein) NHKAFAKFPSSASISPNPFTVSIPDEQLDDLKTLVRLSKIAPPTYESLQADGRFGITSEWLTTMREKWLSEFDWRPFEARLNSFPQFTTEIEGLTIHFAALFSEREDAVPIALLHGWPGSFVEFYPILQLFREEYTPETLPFHLVVPSLPGYTFSSGPPLDKDFGLMDNARVVDQLMKDLGFGSGYIIQGGDIGSFVGRLLGVGFDACKAVHLNLCNMSAPPEGPSIESLSAAEKEGIARMEKFMTDGYAYAMEHSTRPSTIGHVLSSSPIALLAWIGEKYLQWVDKPLPSETILEMVSLYWLTESFPRAIHTYREWVPTASAPNGATMLQKELYIHKPFGFSFFPKDLVPVPRSWIATTGNLVFFRDHAEGGHFAALERPRELKTDLTAFVEQVWQK | – | -2.73 | 93.2
4 | WT: WT epoxide hydrolase sequence from Aspergillus niger (protein, Aspergillus niger) NHKAFAKFPSSASISPNPFTVSIPDEQLDDLKTLVRLSKIAPPTYESLQADGRFGITSEWLTTMREKWLSEFDWRPFEARLNSFPQFTTEIEGLTIHFAALFSEREDAVPIALLHGWPGSFVEFYPILQLFREEYTPETLPFHLVVPSLPGYTFSSGPPLDKDFGLMDNARVVDQLMKDLGFGSGYIIQGGDIGSFVGRLLGVGFDACKAVHLNLCAMRAPPEGPSIESLSAAEKEGIARMEKFMTDGLAYAMEHSTRPSTIGHVLSSSPIALLAWIGEKYLQWVDKPLPSETILEMVSLYWLTESFPRAIHTYRETTPTASAPNGATMLQKELYIHKPFGFSFFPKDLCPVPRSWIATTGNLVFFRDHAEGGHFAALERPRELKTDLTAFVEQVWQK | – | -0.85 | 4
